Measured values published in PMC6037785, “Microtubule minus-end aster organization is driven by processive HSET-tubulin clusters” (Nature Communications, 2018).

How the values were obtained:
[1] = molecular target: unlabeled HSET (full-length HSET with N-terminal 6x His tag, no EGFP) (human) (UniProt Q9BW19); test: fluorescence intensity analysis of moving particles (TIRF); first frame of moving EGFP-HSET (with unlabeled tubulin) or moving Cy5-tubulin (10 nM, with 10 nM unlabeled HSET) on GMPCPP-MTs compared with single molecules adhered to glass; BRB80 + 50 mM KCl with 0.5 mg/mL casein
[2] = molecular target: the molecule itself; test: single-molecule stepwise photobleaching (TIRF); single EGFP-tagged molecules adhered to a glass surface; photobleaching traces compared with EGFP-XMCAK, a known dimer; monomers to dimer

Cy5-tubulin (bovine brain tubulin labeled with NHS-Cy5, 100% labeled) (from UniProt Q6B856 1-445) (complex)
brightness of moving Cy5-tubulin particles (with HSET) over single Cy5-tubulin molecules [1]: 11.8 fold

B1: EGFP-HSETΔMotor (domain or fragment, human, UniProt Q9BW19 1-304, looked up)
chain: MDPQRSPLLEVKGNIELKRPLIKAPSQLPLSGSRLKRRPDQMEDGLEPEKKRTRGLGATTKITTSHPRVPSLTTVPQTQGQTTAQKVSKKTGPRCSTAIATGLKNQKPVPAVPVQKSGTSGVPPMAGGKKPSKRPAWDLKGQLCDLNAELKRCRERTQTLDQENQQLQDQLRDAQQQVKALGTERTTLEGHLAKVQAQAEQGQQELKNLRACVLELEERLSTQEGLVQELQKKQVELQEERRGLMSQLEEKERRLQTSEAALSSSQAEVASLRQETVAQAALLTEREERLHGLEMERRRLHNQL
notes: HSET/KIFC1, Homo sapiens kinesin-14, amino acids 1-304 (tail and stalk, motor domain deleted); also called pET15b-HTa-EGFP-HSETΔMotor; source: E. coli BL21DE3, purified (Ni-NTA, size exclusion chromatography); not shown: His6, N-terminal, kept; EGFP, N-terminal, kept
stoichiometry N [2]: 2

B2: EGFP-HSET (full-length HSET/KIFC1, human kinesin-14, with N-terminal 6x His tag and EGFP) (natural protein, UniProt Q9BW19 1-673, looked up)
chain: MDPQRSPLLEVKGNIELKRPLIKAPSQLPLSGSRLKRRPDQMEDGLEPEKKRTRGLGATTKITTSHPRVPSLTTVPQTQGQTTAQKVSKKTGPRCSTAIATGLKNQKPVPAVPVQKSGTSGVPPMAGGKKPSKRPAWDLKGQLCDLNAELKRCRERTQTLDQENQQLQDQLRDAQQQVKALGTERTTLEGHLAKVQAQAEQGQQELKNLRACVLELEERLSTQEGLVQELQKKQVELQEERRGLMSQLEEKERRLQTSEAALSSSQAEVASLRQETVAQAALLTEREERLHGLEMERRRLHNQLQELKGNIRVFCRVRPVLPGEPTPPPGLLLFPSGPGGPSDPPTRLSLSRSDERRGTLSGAPAPPTRHDFSFDRVFPPGSGQDEVFEEIAMLVQSALDGYPVCIFAYGQTGSGKTFTMEGGPGGDPQLEGLIPRALRHLFSVAQELSGQGWTYSFVASYVEIYNETVRDLLATGTRKGQGGECEIRRAGPGSEELTVTNARYVPVSCEKEVDALLHLARQNRAVARTAQNERSSRSHSVFQLQISGEHSSRGLQCGAPLSLVDLAGSERLDPGLALGPGERERLRETQAINSSLSTLGLVIMALSNKESHVPYRNSKLTYLLQNSLGGSAKMLMFVNISPLEENVSESLNSLRFASKVNQCVIGTAQANRK
notes: HSET/KIFC1, Homo sapiens kinesin-14, amino acids 1-673; No tag cleavage is described; also called full-length EGFP-HSET; pFASTBAC-HTa-EGFP-HSET; source: Sf9 cells (baculovirus), purified (Ni-NTA, size exclusion chromatography); not shown: His6, N-terminal, kept; EGFP, N-terminal, kept
stoichiometry N [2]: 2

B3: EGFP-HSET-DoubleTail (other, human)
chain: MDPQRSPLLEVKGNIELKRPLIKAPSQLPLSGSRLKRRPDQMEDGLEPEKKRTRGLGATTKITTSHPRVPSLTTVPQTQGQTTAQKVSKKTGPRCSTAIATGLKNQKPVPAVPVQKSGTSGVPPMAGGKKPSKRPAWDLKGQLCDLNAELKRCRERTQTLDQENQQLQDQLRDAQQQVKALGTERTTLEGHLAKVQAQAEQGQQELKNLRACVLELEERLSTQEGLVQELQKKQVELQEERRGLMSQLEEKERRLQTSEAALSSSQAEVASLRQETVAQAALLTEREERLHGLEMERRRLHNQLQELGGSGGSMDPQRSPLLEVKGNIELKRPLIKAPSQLPLSGSRLKRRPDQMEDGLEPEKKRTRGLGATTKITTSHPRVPSLTTVPQTQGQTTAQKVSKKTGPRCSTAIATGLKNQKPVPAVPVQKSGTSGVPPMAGGKKPSKRPAW
notes: HSET/KIFC1, Homo sapiens kinesin-14, amino acids 1-307 (tail and stalk); flexible amino acid linker; HSET/KIFC1, Homo sapiens kinesin-14, amino acids 1-137 (second copy of the N-terminal tail in place of the motor domain); also called pET15b-HTa-EGFP-HSETDoubleTail; source: E. coli BL21DE3, purified (Ni-NTA, size exclusion chromatography); not shown: His6, N-terminal, kept; EGFP, N-terminal, kept
stoichiometry N [2]: 2

B4: EGFP-HSETΔTail (domain or fragment, human, UniProt Q9BW19 139-673, looked up)
chain: LKGQLCDLNAELKRCRERTQTLDQENQQLQDQLRDAQQQVKALGTERTTLEGHLAKVQAQAEQGQQELKNLRACVLELEERLSTQEGLVQELQKKQVELQEERRGLMSQLEEKERRLQTSEAALSSSQAEVASLRQETVAQAALLTEREERLHGLEMERRRLHNQLQELKGNIRVFCRVRPVLPGEPTPPPGLLLFPSGPGGPSDPPTRLSLSRSDERRGTLSGAPAPPTRHDFSFDRVFPPGSGQDEVFEEIAMLVQSALDGYPVCIFAYGQTGSGKTFTMEGGPGGDPQLEGLIPRALRHLFSVAQELSGQGWTYSFVASYVEIYNETVRDLLATGTRKGQGGECEIRRAGPGSEELTVTNARYVPVSCEKEVDALLHLARQNRAVARTAQNERSSRSHSVFQLQISGEHSSRGLQCGAPLSLVDLAGSERLDPGLALGPGERERLRETQAINSSLSTLGLVIMALSNKESHVPYRNSKLTYLLQNSLGGSAKMLMFVNISPLEENVSESLNSLRFASKVNQCVIGTAQANRK
notes: HSET/KIFC1, Homo sapiens kinesin-14, amino acids 139-673 (stalk and motor, N-terminal tail deleted); also called pFASTBAC-HTa-EGFP-HSETΔTail; tailless HSET; source: Sf9 cells (baculovirus), purified (Ni-NTA, size exclusion chromatography); not shown: His6, N-terminal, kept; EGFP, N-terminal, kept
stoichiometry N [2]: 2
